Values quoted from earlier work, collected in US8633160B2, “Small molecule inhibitors of PDZ interactions” (Nono Inc., priority 2005, dated 2014).

Tests used:
[1] = molecular target: N-type calcium channel (Homo sapiens, UniProt Q00975); settings: data of U.S. Provisional Application No. 60/904,507; cited from earlier work
[2] = system: middle cerebral artery occlusion (MCAO) model of stroke; settings: rat, previously tested; cited from earlier work

N-type calcium channel, sequence (Q00975 whole entry): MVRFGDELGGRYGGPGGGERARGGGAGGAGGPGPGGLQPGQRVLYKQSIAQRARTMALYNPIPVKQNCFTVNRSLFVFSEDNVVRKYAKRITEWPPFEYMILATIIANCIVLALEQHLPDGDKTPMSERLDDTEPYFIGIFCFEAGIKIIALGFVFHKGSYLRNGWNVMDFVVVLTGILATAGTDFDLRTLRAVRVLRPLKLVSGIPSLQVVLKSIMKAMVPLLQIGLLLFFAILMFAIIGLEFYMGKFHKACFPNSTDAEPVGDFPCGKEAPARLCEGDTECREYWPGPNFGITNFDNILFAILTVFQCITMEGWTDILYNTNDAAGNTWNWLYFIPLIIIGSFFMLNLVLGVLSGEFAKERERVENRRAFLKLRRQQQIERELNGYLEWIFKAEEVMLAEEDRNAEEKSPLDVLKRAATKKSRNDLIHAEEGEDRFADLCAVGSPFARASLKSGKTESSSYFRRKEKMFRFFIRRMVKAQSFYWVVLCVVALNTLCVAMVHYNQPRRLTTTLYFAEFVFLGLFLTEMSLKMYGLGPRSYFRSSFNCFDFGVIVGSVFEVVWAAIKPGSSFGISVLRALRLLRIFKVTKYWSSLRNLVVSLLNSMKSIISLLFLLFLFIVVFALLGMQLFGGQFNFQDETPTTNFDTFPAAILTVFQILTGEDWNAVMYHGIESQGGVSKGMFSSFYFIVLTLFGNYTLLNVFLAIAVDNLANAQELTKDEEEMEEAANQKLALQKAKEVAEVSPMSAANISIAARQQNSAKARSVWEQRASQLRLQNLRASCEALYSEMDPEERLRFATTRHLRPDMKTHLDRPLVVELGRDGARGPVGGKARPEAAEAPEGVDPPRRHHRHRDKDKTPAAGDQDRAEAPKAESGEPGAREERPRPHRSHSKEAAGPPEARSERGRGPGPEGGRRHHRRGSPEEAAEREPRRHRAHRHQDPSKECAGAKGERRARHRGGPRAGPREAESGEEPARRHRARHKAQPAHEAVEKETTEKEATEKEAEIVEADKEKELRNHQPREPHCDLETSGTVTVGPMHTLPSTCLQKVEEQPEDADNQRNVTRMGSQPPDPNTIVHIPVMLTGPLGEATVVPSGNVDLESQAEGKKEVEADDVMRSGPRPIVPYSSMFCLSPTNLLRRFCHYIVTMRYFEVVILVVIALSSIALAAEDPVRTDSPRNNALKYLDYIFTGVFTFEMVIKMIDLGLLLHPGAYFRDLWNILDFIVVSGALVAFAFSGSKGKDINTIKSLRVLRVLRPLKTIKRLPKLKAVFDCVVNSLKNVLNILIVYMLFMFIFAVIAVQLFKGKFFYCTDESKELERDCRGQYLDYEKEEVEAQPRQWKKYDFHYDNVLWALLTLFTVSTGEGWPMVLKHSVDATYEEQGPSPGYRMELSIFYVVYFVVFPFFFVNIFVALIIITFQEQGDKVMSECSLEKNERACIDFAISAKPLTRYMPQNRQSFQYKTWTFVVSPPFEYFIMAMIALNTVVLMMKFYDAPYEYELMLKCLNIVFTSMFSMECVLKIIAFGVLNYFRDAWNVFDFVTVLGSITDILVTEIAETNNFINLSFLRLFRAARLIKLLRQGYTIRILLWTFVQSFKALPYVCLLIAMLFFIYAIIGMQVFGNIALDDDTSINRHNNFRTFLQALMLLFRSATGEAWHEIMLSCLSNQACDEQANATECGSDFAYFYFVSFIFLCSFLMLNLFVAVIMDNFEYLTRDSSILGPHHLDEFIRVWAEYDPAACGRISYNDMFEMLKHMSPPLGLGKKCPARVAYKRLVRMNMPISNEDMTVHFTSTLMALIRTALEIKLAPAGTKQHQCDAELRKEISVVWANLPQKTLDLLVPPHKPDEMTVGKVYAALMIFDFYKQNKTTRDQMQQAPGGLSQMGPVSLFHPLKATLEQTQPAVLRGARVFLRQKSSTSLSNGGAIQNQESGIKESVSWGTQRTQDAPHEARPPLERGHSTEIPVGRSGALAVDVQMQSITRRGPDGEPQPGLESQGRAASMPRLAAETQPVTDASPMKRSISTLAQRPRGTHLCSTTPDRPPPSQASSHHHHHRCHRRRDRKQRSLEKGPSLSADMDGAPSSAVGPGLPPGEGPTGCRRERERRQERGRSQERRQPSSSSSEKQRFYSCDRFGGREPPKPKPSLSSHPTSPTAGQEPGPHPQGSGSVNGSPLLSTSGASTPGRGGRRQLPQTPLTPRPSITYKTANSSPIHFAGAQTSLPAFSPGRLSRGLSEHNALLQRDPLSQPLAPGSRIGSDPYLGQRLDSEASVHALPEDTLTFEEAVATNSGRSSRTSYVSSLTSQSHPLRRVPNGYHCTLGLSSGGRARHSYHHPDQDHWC

| Sequence | Inhibition of the N-type calcium channel [1] | Neuroprotection (infarct size) [2] |
| --- | --- | --- |
| YGRKKRRQRRR [Tat] | sufficient to induce the observed inhibition | – |
| YGRKKRRQRRRKLSSIESDV [Tat-NR2B9c, known neuroprotective peptide] | – | neuroprotective as seen by a reduced infarct size |
